According to patent US20200024330A1:

What was measured:
Assay in all cases: cell-based or functional assay
[1] = target: aMLV envelope (negative control pseudovirus)
[2] = target: HIV-1 NL43 envelope glycoprotein (Env) on pseudovirus (HIV-1)
[3] = target: HIV-1 Env of isolate MGRM-AE-005 (HIV-1)
[4] = target: HIV-1 Env of isolate MGRM-G-015 (HIV-1)
[5] = target: HIV-1 Env of isolate MGRM-G-016 (HIV-1)
[6] = target: HIV-1 Env of isolate MGRM-G-013 (HIV-1)
[7] = target: HIV-1 Env of isolate MGRM-G-014 (HIV-1)
[8] = target: HIV-1 92BR020 envelope glycoprotein (Env) on pseudovirus (HIV-1)
[9] = target: HIV-1 Env of isolate MGRM-G-009 (HIV-1)
[10] = target: HIV-1 Env of isolate MGRM-AE-007 (HIV-1)
[11] = target: HIV-1 92TH021 envelope glycoprotein (Env) on pseudovirus (HIV-1)
[12] = target: HIV-1 92UG024 envelope glycoprotein (Env) on pseudovirus (HIV-1)
[13] = target: HIV-1 Env of isolate MGRM-G-011 (HIV-1)
[14] = target: HIV-1 Env of isolate MGRM-G-019 (HIV-1)
[15] = target: HIV-1 Env of isolate MGRM-G-027 (HIV-1)
[16] = target: HIV-1 92RW020 envelope glycoprotein (Env) on pseudovirus (HIV-1)
[17] = target: HIV-1 Env of isolate MGRM-G-001 (HIV-1)
[18] = target: HIV-1 Env of isolate MGRM-F1-012 (subtype F) (HIV-1)
[19] = target: HIV-1 Env of isolate MGRM-G-017 (HIV-1)
[20] = target: HIV-1 Env of isolate MGRM-G-004 (HIV-1)
[21] = target: HIV-1 Env of isolate MGRM-AE-008 (HIV-1)
[22] = target: HIV-1 Env of isolate MGRM-AE-004 (HIV-1)
[23] = target: HIV-1 Env of isolate MGRM-AE-006 (HIV-1)
[24] = target: HIV-1 Env of isolate MGRM-G-006 (HIV-1)
[25] = target: HIV-1 MGRM-A-010 envelope glycoprotein (Env) (HIV-1)
[26] = target: HIV-1 Env of isolate MGRM-Chronic-B-018 (HIV-1)
[27] = target: HIV-1 Env of isolate MGRM-AG-001 (HIV-1)
[28] = target: HIV-1 Env of isolate MGRM-Chronic-B-010 (HIV-1)
[29] = target: HIV-1 93UG077 envelope protein (Env) on pseudovirus (HIV-1)
[30] = target: HIV-1 Env of isolate MGRM-Chronic-B-023 (HIV-1)
[31] = target: HIV-1 Env of isolate MGRM-Chronic-B-011 (HIV-1)
[32] = target: HIV-1 Env of isolate MGRM-Chronic-B-012 (HIV-1)
[33] = target: HIV-1 Env of isolate MGRM-AG-005 (HIV-1)
[34] = target: HIV-1 Env of isolate MGRM-AG-013 (HIV-1)
[35] = target: HIV-1 Env of isolate MGRM-AG-012 (HIV-1)
[36] = target: HIV-1 Env of isolate MGRM-AG-011 (HIV-1)
[37] = target: HIV-1 Env of isolate MGRM-Chronic-B-020 (HIV-1)
[38] = target: HIV-1 Env of pseudovirus TRO.11 (Acute), clade B (HIV-1)
[39] = target: HIV-1 Env of isolate JRFL (HIV-1)
[40] = target: HIV-1 Env of isolate MGRM-Chronic-B-024 (HIV-1)
[41] = target: HIV-1 Env of isolate MGRM-Chronic-B-017 (HIV-1)
[42] = target: HIV-1 Env of isolate MGRM-AG-008 (HIV-1)
[43] = target: HIV-1 Env of isolate MGRM-AG-006 (HIV-1)
[44] = target: HIV-1 Env of isolate MGRM-AG-002 (HIV-1)
[45] = target: HIV-1 Env of isolate MGRM-AG-003 (HIV-1)
[46] = target: HIV-1 Env of isolate MGRM-D-011 (clade D) (HIV-1)
[47] = target: HIV-1 Env of isolate MGRM-AG-009 (HIV-1)

Chain of 1443_C16 (PG16) (TCN-116) (antibody) (VH): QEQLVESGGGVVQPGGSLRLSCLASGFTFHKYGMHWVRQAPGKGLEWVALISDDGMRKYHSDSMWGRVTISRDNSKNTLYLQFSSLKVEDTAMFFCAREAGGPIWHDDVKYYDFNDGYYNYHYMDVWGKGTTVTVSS
Chain of 1443_C16 (PG16) (TCN-116) (antibody) (VL): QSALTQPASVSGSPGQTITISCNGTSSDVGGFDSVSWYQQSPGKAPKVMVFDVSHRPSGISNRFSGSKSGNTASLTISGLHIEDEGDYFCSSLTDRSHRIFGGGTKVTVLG

## 5123_A06 (PGT-125) (antibody)
[1]
  IC50, pseudovirus neutralization: > 50 µg/mL
[2]
  IC50 (ug/ml), neutralizing activity: > 10 µg/mL
  neutralization IC50: > 10 µg/mL
  neutralization IC80: > 10 µg/mL
  neutralization IC90: > 10 µg/mL
  neutralization IC95: > 10 µg/mL
[3]
  neutralization IC50: 0.01 µg/mL
[4]
  IC50, pseudovirus neutralization: > 50 µg/mL
[5]
  IC50, pseudovirus neutralization: > 50 µg/mL
[6]
  IC50, pseudovirus neutralization: > 50 µg/mL
[7]
  IC50, pseudovirus neutralization: 0.007 µg/mL
[8]
  IC50 (ug/ml), neutralizing activity: 0.0214 µg/mL
  neutralization IC50: 0.0214 µg/mL
  neutralization IC80: 0.0738 µg/mL
  neutralization IC90: 0.156 µg/mL
  neutralization IC95: 0.323 µg/mL
[9]
  IC50, pseudovirus neutralization: > 50 µg/mL
[10]
  neutralization IC50: 0.876 µg/mL
[11]
  IC50 (ug/ml), neutralizing activity: 0.0066 µg/mL
  neutralization IC50: 0.0066 µg/mL
  neutralization IC80: 0.0292 µg/mL
  neutralization IC90: 0.0701 µg/mL
  neutralization IC95: 0.157 µg/mL
[12]
  IC50 (ug/ml), neutralizing activity: > 10 µg/mL
  neutralization IC50: > 10 µg/mL
  neutralization IC80: > 10 µg/mL
  neutralization IC90: > 10 µg/mL
  neutralization IC95: > 10 µg/mL
[13]
  IC50, pseudovirus neutralization: > 50 µg/mL
[14]
  IC50, pseudovirus neutralization: > 50 µg/mL
[15]
  IC50, pseudovirus neutralization: 34.4 µg/mL
[16]
  IC50 (ug/ml), neutralizing activity: 0.0028 µg/mL
  neutralization IC50: 0.0028 µg/mL
  neutralization IC80: 0.011 µg/mL
  neutralization IC90: 0.0248 µg/mL
  neutralization IC95: 0.0526 µg/mL
[17]
  IC50, pseudovirus neutralization: 0.033 µg/mL
[18]
  IC50 (µg/mL), pseudovirus neutralization: > 50 µg/mL
[19]
  IC50, pseudovirus neutralization: > 50 µg/mL
[20]
  IC50, pseudovirus neutralization: > 50 µg/mL
[21]
  neutralization IC50: > 50 µg/mL
[22]
  neutralization IC50: > 50 µg/mL
[23]
  neutralization IC50: 0.009 µg/mL
[24]
  IC50, pseudovirus neutralization: > 50 µg/mL

## 5141_B17 (PGT-126) (antibody)
[1]
  IC50: > 10 µg/mL
  IC50, pseudovirus neutralization: > 50 µg/mL
  IC80: > 10 µg/mL
  IC90: > 10 µg/mL
  IC95: > 10 µg/mL
[2]
  IC50 (ug/ml), neutralizing activity: > 10 µg/mL
[3]
  neutralization IC50: 0.324 µg/mL
[4]
  IC50, pseudovirus neutralization: > 50 µg/mL
[5]
  IC50, pseudovirus neutralization: > 50 µg/mL
[6]
  IC50, pseudovirus neutralization: 48.8 µg/mL
[7]
  IC50, pseudovirus neutralization: 0.009 µg/mL
[8]
  IC50 (ug/ml), neutralizing activity: 0.0163 µg/mL
[9]
  IC50, pseudovirus neutralization: > 50 µg/mL
[10]
  neutralization IC50: > 50 µg/mL
[11]
  IC50 (ug/ml), neutralizing activity: 0.115 µg/mL
[12]
  IC50 (ug/ml), neutralizing activity: > 10 µg/mL
[13]
  IC50, pseudovirus neutralization: 7.32 µg/mL
[14]
  IC50, pseudovirus neutralization: 0.018 µg/mL
[15]
  IC50, pseudovirus neutralization: 0.875 µg/mL
[16]
  IC50 (ug/ml), neutralizing activity: 0.0046 µg/mL
[17]
  IC50, pseudovirus neutralization: 0.038 µg/mL
[18]
  IC50 (µg/mL), pseudovirus neutralization: 0.3 µg/mL
[19]
  IC50, pseudovirus neutralization: > 50 µg/mL
[20]
  IC50, pseudovirus neutralization: > 50 µg/mL
[21]
  neutralization IC50: > 50 µg/mL
[22]
  neutralization IC50: > 50 µg/mL
[23]
  neutralization IC50: 17.3 µg/mL
[24]
  IC50, pseudovirus neutralization: > 50 µg/mL

## 4838_L06 (PGT-121) (antibody)
[1]
  IC50, pseudovirus neutralization: > 50 µg/mL
[2]
  IC50 (ug/ml), neutralizing activity: > 10 µg/mL
[3]
  neutralization IC50: > 50 µg/mL
[4]
  IC50, pseudovirus neutralization: > 50 µg/mL
[5]
  IC50, pseudovirus neutralization: > 50 µg/mL
[6]
  IC50, pseudovirus neutralization: 3.99 µg/mL
[7]
  IC50, pseudovirus neutralization: 0.009 µg/mL
[9]
  IC50, pseudovirus neutralization: 0.02 µg/mL
[10]
  neutralization IC50: > 50 µg/mL
[11]
  IC50 (ug/ml), neutralizing activity: > 10 µg/mL
[12]
  IC50 (ug/ml), neutralizing activity: > 10 µg/mL
[13]
  IC50, pseudovirus neutralization: 3.17 µg/mL
[14]
  IC50, pseudovirus neutralization: 0.011 µg/mL
[15]
  IC50, pseudovirus neutralization: 0.124 µg/mL
[17]
  IC50, pseudovirus neutralization: 0.004 µg/mL
[18]
  IC50 (µg/mL), pseudovirus neutralization: 1.91 µg/mL
[19]
  IC50, pseudovirus neutralization: 0.004 µg/mL
[20]
  IC50, pseudovirus neutralization: 0.115 µg/mL
[21]
  neutralization IC50: > 50 µg/mL
[22]
  neutralization IC50: > 50 µg/mL
[23]
  neutralization IC50: > 50 µg/mL
[24]
  IC50, pseudovirus neutralization: > 50 µg/mL

## 5145_B14 (PGT-127) (antibody)
[1]
  IC50, pseudovirus neutralization: > 50 µg/mL
[3]
  neutralization IC50: > 50 µg/mL
[4]
  IC50, pseudovirus neutralization: > 50 µg/mL
[5]
  IC50, pseudovirus neutralization: > 50 µg/mL
[6]
  IC50, pseudovirus neutralization: 7.7 µg/mL
[7]
  IC50, pseudovirus neutralization: 0.009 µg/mL
[9]
  IC50, pseudovirus neutralization: > 50 µg/mL
[10]
  neutralization IC50: > 50 µg/mL
[13]
  IC50, pseudovirus neutralization: > 50 µg/mL
[14]
  IC50, pseudovirus neutralization: 0.429 µg/mL
[15]
  IC50, pseudovirus neutralization: > 50 µg/mL
[17]
  IC50, pseudovirus neutralization: 0.113 µg/mL
[18]
  IC50 (µg/mL), pseudovirus neutralization: > 50 µg/mL
[19]
  IC50, pseudovirus neutralization: > 50 µg/mL
[20]
  IC50, pseudovirus neutralization: > 50 µg/mL
[21]
  neutralization IC50: > 50 µg/mL
[22]
  neutralization IC50: > 50 µg/mL
[23]
  neutralization IC50: > 50 µg/mL
[24]
  IC50, pseudovirus neutralization: > 50 µg/mL

## 1443_C16 (PG16) (TCN-116) (antibody)
[1]
  IC50 (µg/ml), pseudovirus neutralization: > 50 µg/mL
[2]
  IC90 (pseudovirus neutralization): > 50 µg/mL
[25]
  IC50 (µg/ml), pseudovirus neutralization: 0.004 µg/mL
[26]
  IC50 (µg/ml), pseudovirus neutralization: 0.7 µg/mL
[3]
  IC50 (µg/ml), pseudovirus neutralization: 0.02 µg/mL
[27]
  IC50 (µg/ml), pseudovirus neutralization: 0.03 µg/mL
[28]
  IC50 (µg/ml), pseudovirus neutralization: 0.01 µg/mL
[29]
  neutralization IC50: > 50 µg/mL
[30]
  IC50 (µg/ml), pseudovirus neutralization: 0.13 µg/mL
[8]
  IC90 (pseudovirus neutralization): > 50 µg/mL
[31]
  IC50 (µg/ml), pseudovirus neutralization: > 50 µg/mL
[32]
  IC50 (µg/ml), pseudovirus neutralization: 3.74 µg/mL
[9]
  IC50 (µg/ml), pseudovirus neutralization: > 50 µg/mL
[33]
  IC50 (µg/ml), pseudovirus neutralization: > 50 µg/mL
[34]
  IC50 (µg/ml), pseudovirus neutralization: 0.31 µg/mL
[10]
  IC50 (µg/ml), pseudovirus neutralization: 0.04 µg/mL
[11]
  IC90 (pseudovirus neutralization): 23.4 µg/mL
[12]
  IC90 (pseudovirus neutralization): > 50 µg/mL
[35]
  IC50 (µg/ml), pseudovirus neutralization: 25.1 µg/mL
[36]
  IC50 (µg/ml), pseudovirus neutralization: 0.002 µg/mL
[37]
  IC50 (µg/ml), pseudovirus neutralization: > 50 µg/mL
[38]
  IC50 (µg/ml), pseudovirus neutralization: 0.22 µg/mL
[39]
  IC50 (µg/ml), pseudovirus neutralization: > 50 µg/mL
[40]
  IC50 (µg/ml), pseudovirus neutralization: 0.01 µg/mL
[16]
  IC90 (pseudovirus neutralization): > 50 µg/mL
[41]
  IC50 (µg/ml), pseudovirus neutralization: 0.02 µg/mL
[17]
  IC50 (µg/ml), pseudovirus neutralization: 0.15 µg/mL
[42]
  IC50 (µg/ml), pseudovirus neutralization: 0.002 µg/mL
[43]
  IC50 (µg/ml), pseudovirus neutralization: > 50 µg/mL
[44]
  IC50 (µg/ml), pseudovirus neutralization: 0.03 µg/mL
[20]
  IC50 (µg/ml), pseudovirus neutralization: > 50 µg/mL
[45]
  IC50 (µg/ml), pseudovirus neutralization: > 50 µg/mL
[21]
  IC50 (µg/ml), pseudovirus neutralization: 3.25 µg/mL
[46]
  IC50 (µg/ml), pseudovirus neutralization: 0.01 µg/mL
[22]
  IC50 (µg/ml), pseudovirus neutralization: 0.002 µg/mL
[23]
  IC50 (µg/ml), pseudovirus neutralization: 0.03 µg/mL
[47]
  IC50 (µg/ml), pseudovirus neutralization: > 50 µg/mL
[24]
  IC50 (µg/ml), pseudovirus neutralization: 2.42 µg/mL
